According to publication PMC3152652:

How the values were obtained:
[1] = HEK 293 co-expression, Western blot of conditioned medium; conditions: glycan lost; control: wild type
[2] = HEK 293, Western blot densitometry, pro-BNP to BNP conversion; conditions: glycan lost; control: wild type

## pro-BNP (pro-B-type natriuretic peptide): T71A
[1]
  other: proteolytic processing: increases
[2]
  other: proteolytic processing: increases
